What was measured:
Assay in all cases: radioligand binding
[1] = target: HLA-DPB1*0501 (human (endogenous in HO301))
[2] = target: HLA-DPB1*0101 (human (endogenous in VAVY))
[3] = target: HLA-DPB1*0201 (human (endogenous in JY))

B1: … E11N (peptide)
peptide: EKKYFAATQFNPLAA
other [1]: 0.36

B2: … E11Q (peptide)
peptide: EKKYFAATQFQPLAA
other [1]: 1

B3: … E11R (peptide)
peptide: EKKYFAATQFRPLAA
other [1]: 1

B4: … Q9V (peptide)
peptide: EKKYFAATVFEPLAA
other [1]: 3.4

B5: … E11V (peptide)
peptide: EKKYFAATQFVPLAA
other [1]: 2

B6: … T8W (peptide)
peptide: EKKYFAAWQFEPLAA
other [1]: 0.13

B7: … E11W (peptide)
peptide: EKKYFAATQFWPLAA
other [1]: 0.13

B8: … A6Y (peptide)
peptide: EKKYFYATQFEPLAA
other [2]: 6
other [1]: 2.1

B9: … T8Y (peptide)
peptide: EKKYFAAYQFEPLAA
other [1]: 0.2

B10: … Y4A (peptide)
peptide: EKKAFAATQFEPLAA
other [2]: 0.066
other [3]: 0.2

B11: … Q9C (peptide)
peptide: EKKYFAATCFEPLAA
other [2]: 1.8

B12: … Y4D (peptide)
peptide: EKKDFAATQFEPLAA
other [2]: 2

B13: … T8D (peptide)
peptide: EKKYFAADQFEPLAA
other [2]: 0.2

B14: … A6F (peptide)
peptide: EKKYFFATQFEPLAA
other [2]: 2.1

B15: … Q9H (peptide)
peptide: EKKYFAATHFEPLAA
other [2]: 1

B16: … T8N (peptide)
peptide: EKKYFAANQFEPLAA
other [2]: 3.4

B17: … A6P (peptide)
peptide: EKKYFPATQFEPLAA
other [2]: 0.18

B18: … Q9P (peptide)
peptide: EKKYFAATPFEPLAA
other [2]: 1

B19: … Y4Q (peptide)
peptide: EKKQFAATQFEPLAA
other [2]: 1
other [3]: 1.8

B20: … Q9R (peptide)
peptide: EKKYFAATRFEPLAA
other [2]: 1.8

B21: … A6T (peptide)
peptide: EKKYFTATQFEPLAA
other [2]: 2.1
other [3]: 1

B22: … A6C (peptide)
peptide: EKKYFCATQFEPLAA
other [3]: 0.38

B23: … A6D (peptide)
peptide: EKKYFDATQFEPLAA
other [3]: 0.36
other [1]: 0.13

B24: … A6E (peptide)
peptide: EKKYFEATQFEPLAA
other [3]: 0.41

B25: … A6I (peptide)
peptide: EKKYFIATQFEPLAA
other [3]: 0.89

B26: … E11I (peptide)
peptide: EKKYFAATQFIPLAA
other [3]: 1.8
other [1]: 2.1

B27: … E11L (peptide)
peptide: EKKYFAATQFLPLAA
other [3]: 2

B28: … Q9S (peptide)
peptide: EKKYFAATSFEPLAA
other [3]: 2

B29: … Q9A (peptide)
peptide: EKKYFAATAFEPLAA
other [1]: 1

B30: … Q9F (peptide)
peptide: EKKYFAATFFEPLAA
other [1]: 13

B31: … A6K (peptide)
peptide: EKKYFKATQFEPLAA
other [1]: 1.8

B32: … Q9K (peptide)
peptide: EKKYFAATKFEPLAA
other [1]: 0.95
